From US6610494B2, “Solid-phase activity assay for biologically active substance” (priority 1996, dated 2003)

B1: papain: cysteine protease, EC 3.4.22.2 (protein, UniProt P00784 134-345, looked up)
Papain: IPEYVDWRQKGAVTPVKNQGSCGSCWAFSAVVTIEGIIKIRTGNLNEYSEQELLDCDRRSYGCNGGYPWSALQLVAQYGIHYRNTYPYEGVQRYCRSREKGPYAAKTDGVRQVQPYNEGALLYSIANQPVSVVLEAAGKDFQLYRGGIFVGPCGNKVDHAVAAVGYGPNYILIKNSWGTGWGENGYIRIKRGTGNSYGVCGLYTSSFYPVKN
B2: endo-1,3-1,4-β-D-glucan-4-glucanohydrolase (protein, UniProt P04957 29-242, looked up)
Beta-glucanase: QTGGSFFDPFNGYNSGFWQKADGYSNGNMFNCTWRANNVSMTSLGEMRLALTSPAYNKFDCGENRSVQTYGYGLYEVRMKPAKNTGIVSSFFTYTGPTDGTPWDEIDIEFLGKDTTKVQFNYYTNGAGNHEKIVDLGFDAANAYHTYAFDWQPNSIKWYVDGQLKHTATNQIPTTPGKIMMNLWNGTGVDEWLGSYNGVNPLYAHYDWVRYTKK
notes: EC 3.2.1.73 from Bacillus subtilis, Megazyme
B3: thermolysin: metaloprotease, EC 3.4.24.27 (protein, UniProt P00800 233-548, looked up)
Thermolysin: ITGTSTVGVGRGVLGDQKNINTTYSTYYYLQDNTRGNGIFTYDAKYRTTLPGSLWADADNQFFASYDAPAVDAHYYAGVTYDYYKNVHNRLSYDGNNAAIRSSVHYSQGYNNAFWNGSQMVYGDGDGQTFIPLSGGIDVVAHELTHAVTDYTAGLIYQNESGAINEAISDIFGTLVEFYANKNPDWEIGEDVYTPGISGDSLRSMSDPAKYGDPDHYSKRYTGTQDNGGVHINSGIINKAAYLISQGGTHYGVSVVGIGRDKLGKIFYRALTQYLTPTSNFSQLRAAAVQSATDLYGSTSQEVASVKQAFDAVGVK
B4: 1,4-D glucan glucanohydrolase (protein, UniProt P00690 16-511, looked up)
Pancreatic alpha-amylase: QYAPQTQSGRTSIVHLFEWRWVDIALECERYLGPKGFGGVQVSPPNENIVVTNPSRPWWERYQPVSYKLCTRSGNENEFRDMVTRCNNVGVRIYVDAVINHMCGSGAAAGTGTTCGSYCNPGNREFPAVPYSAWDFNDGKCKTASGGIESYNDPYQVRDCQLVGLLDLALEKDYVRSMIADYLNKLIDIGVAGFRIDASKHMWPGDIKAVLDKLHNLNTNWFPAGSRPFIFQEVIDLGGEAIQSSEYFGNGRVTEFKYGAKLGTVVRKWSGEKMSYLKNWGEGWGFMPSDRALVFVDNHDNQRGHGAGGASILTFWDARLYKVAVGFMLAHPYGFTRVMSSYRWARNFVNGQDVNDWIGPPNNNGVIKEVTINADTTCGNDWVCEHRWRQIRNMVWFRNVVDGQPFANWWANGSNQVAFGRGNRGFIVFNNDDWQLSSTLQTGLPGGTYCDVISGDKVGNSCTGIKVYVSSDGTAQFSISNSAEDPFIAIHAESKL
notes: EC 3.2.1.1 from porcine pancreas (Type 1-A)

Assays:
trypsin (EC 3.4.21.4) = test: BEISA: competition of inhibitors or other substances for biotinylated trypsin against coated ovomucoid; format: binding
Experimental: Methods: NHS-biotin solution (5.5 mg in 200 ul dimethyl sulfoxide) and trypsin solution (15 mg in 1000 ul PBS) were mixed and reacted at room temperature for 3 hours with gently shaking. The unconjugated biotin was removed at 4° C. using minicon-15 concentrator (Amicon. Co.). The final volume was 1000 ul.
The 96-well microtiter plate (Falcon 3911) was coated with trypsin egg white inhibitor (ovomucoid, 4 ug/100 ul/well) at 370° C. overnight. The plate was washed once using PBST {[PBS, NaCl, 9.00; Na2HPO4, 1.15; NaH2PO4, 0.23 (g/l) pH 7.2] plus 0.05% Tween-20} and 200 ul of 5% skim milk was added to each well of the plate followed by incubation at 37° C. for 2 hours. The plate was rinsed twice with PBST and 50 ul of PBS was added to each well of the plate except for those in column one where 100 ul of PBS was added. Unlabelled trypsin (50 ul of 400 ug/ml) was added to the wells of the second column followed by successive double dilutions of trypsin in wells up to and including those in column 11. Biotinylated trypsin in PBS (50 ul of 1:3000 dilution of the stock to yield approximately 2 ug/100 ul/well) was added to each well except those in the first column followed by incubation at 37° C. for 1 hour. The final volume in each well was 100 ul. The blank set of wells with no trypsin (column 1) served as the negative control while the last set of wells (column 12) with biotinylated trypsin but no unlabelled trypsin served as the positive control. The plate was then washed three times with PBST and 100 ul of streptavidin-alkaline phosphatase (1:1000 in 50 mM bicarbonate buffer, pH 9.5) was added to each well of the plate and the plate was incubated at room temperature for 30 minutes. The plate was washed five times using PBST and 100 ul/well of p-nitrophenyl phosphate substrate (1 mg/ml in 10% diethanolamine buffer, pH 9.8) was added to the plate followed by incubation at ambient temperature for about 30 minutes. The absorbency was then read at 405 nm using a microplate reader (Bio-Rad laboratories Inc. Mississauga, ON, Canada, model 450). […]

β-glucanase (lichenase) = molecular target: T1, β-glucanase (lichenase) (Bacillus subtilis, UniProt P04957); test: Influence of exogenous β-glucan on β-glucanase activity in the ELSA; format: biochemical; conditions: 0.5 mU β-glucanase/well; 22° C., 15 minutes
T1 construct: purchased Megazyme Pty.Ltd. batch MLI 82001
Source text: (§1) Other procedures The method for preparing the arabinoxylan substrate was the same as used for β-glucan except the substrate was arabinoxylan rather than β-glucan. The BNHS to arabinoxylan ratio was 0.2 with the stock substrate being diluted 10,000 fold prior to being coated on the plate. The azo-barley-glucan method for the assay of β-glucanase was according to the procedure described by McCleary and Shameer (1987). The precision of the assay was studied using three concentration of enzyme (0.076, 2.1 and 160 mU)/well. They were added (100 μl) to wells containing the 0.2 biotin-β-glucan diluted 1 to 50,000 and the mixture was incubated for 15 minutes at 22° C. Other procedures were as described above. The assay within the same titer plate was replicated 8 times. The entire assay was replicated 6 times. In the study on the effects that β-glucan had on enzyme activity, β-glucan (5.12 mg/mL) in 20 mM sodium phosphate buffer (pH6.5) was mixed with an equal volume of 0.2 U/mL of β-glucanase and hydrolysed at 40° C. for 60 minutes. The reaction was stopped by putting the enzyme solution in a boiling water bath for 15 minutes. The control sample contained β-glucan but was not incubated with enzyme and was not subjected to boiling. […]

[1] = ELSA: hydrolysis of plate-bound biotinylated β-glucan by enzymes; format: biochemical; conditions: for Relative activity compared to lichenase (mean ± SD, n = 12): enzymes diluted to 5 U/mL per manufacturer values, 0.2 biotin-glucan diluted 1 to 50,000, hydrolysis 15 min, 22° C.
Experimental: Preparation of biotin-glucan conjugates. The technique is based on the principle that active aldehyde groups which is generated after sodium periodate oxidation of the hydroxyl group of the polysaccharide moiety, reacts with ethylenediamine to form an aminated polysaccharide. The Schiff bases that are formed are stabilized by reaction with sodium borohydride (Wong, 1991). The amine groups can then be conjugated to biotin using BNHS. In brief, 75 mg β-glucan was dissolved in 2 mL distilled water and 0.1 mL of 100 mM NaIO4 was then added. The reaction was protected from light and mixed for 0.5 hours at room temperature. The reaction mixture was treated with 1 mL ethylenediamine for 2 hours and unreacted reagents were removed by ethanol precipitation. This involved the addition of 8 mL of 95% (V/V) ethanol to the reaction mixture (3 mL), followed by mixing of the sample, centrifugation at 10000 g for 10 minutes at 0° C. and dissolving the pellet in 2 mL of distilled water. The preparations was washed three times. The washed precipitate was then dissolved in 2 mL distilled water, 5 mg of sodium borohydride were added and the reaction was allowed to proceed for 4 hours at 4° C. The washing steps as indicated above were repeated three times. The biotin ester (BNHS, 15 mg or 0.15 mg) was dissolved in 0.2 mL DMSO, the mixture was allowed to react at room temperature for 3 hours followed by three ethanol precipitations as described above. The final precipitate was dissolved in 3 mL distilled water, divided into aliquots and each aliquot of the BNHS-β-glucan complex was store frozen at […] in sealed polypropylene containers. The ratio of BNHS to β-glucan were 0.2 and 0.002 for the complexes that were synthesized from 15 mg or 0.15 mg BNHS and 75 mg β-glucan, respectively.
The microtitre plates were directly coated with 0.1 mL/well of the biotin-glucan complex diluted in 0.05 M carbonate-bicarbonate buffer (pH=9.6), and then left at room temperature for 1 hr and overnight at […] The usual dilutions of the 0.2 and 0.002 stock biotin-glucan complex were 50,000 and 100 fold, respectively. The plates were washed 3 times with PBS-T buffer and the emptied plates were stored in sealed containers at 0° C. for up to several months.
Test procedures. β-Glucanase (lichenase) was diluted with 20 mM sodium phosphate buffer (pH 6.5) to the desired concentration. The enzyme (100 μL) was added to each well in the biotin-glucan coated microtiter plate, the plate was sealed with a low evaporation lid, and the mixture was incubated for the desired period of time (from 1 to 30 minutes) and at the desired temperature (usually 22-24° C.). The reaction was stopped by emptying the plates followed by washing of the wells three times with pH 7.2 PBS-T. Blanks contained the incubation buffer without enzyme. Alkaline phosphatase-streptavidin (100 μg) diluted 1:1000 in pH 7.2 PBS was added to each well and incubated for 30 minutes at room temperature. The plates were washed six times with pH 7.2 PBS-T and dried at ambient temperature for approximately 10 to 20 minutes. Alkaline phosphatase substrate solution was then added to each well (100 μL) and the microtiter plates were incubated at room temperature for 30 minutes, or until absorbency of the well with no enzyme yielded a value of from 1.5 to 2.0 optical density units. The plates were read at 405 nm using a microtiter plate reader (Bio-Rad Laboratories Ltd., Mississauga, ON, Canada, Model 450).
Other procedures The method for preparing the arabinoxylan substrate was the same as used for β-glucan except the substrate was arabinoxylan rather than β-glucan. The BNHS to arabinoxylan ratio was 0.2 with the stock substrate being diluted 10,000 fold prior to being coated on the plate. The azo-barley-glucan method for the assay of β-glucanase was according to the procedure described by McCleary and Shameer (1987). The precision of the assay was studied using three concentration of enzyme (0.076, 2.1 and 160 mU)/well. […]

biotinylated α-casein = test: Solid phase protease activity assay using biotinylated casein; format: biochemical; conditions: for Hydrolysis of biotin-casein by proteases / Sensitivity (amount of enzyme required to hydrolyse 10% of the biotinylated α-casein): optimal pH of each protease, 37° C., 30 minutes
Experimental: Preparation of biotinylated casein: 12 mg α-casein in 1 ml of 0.1 M pH 7.2 phosphate-buffer saline [PBS, NaCl, 9.00; Na2HPO4, 1.15; NaH2PO4, 0.23 (g/l)] was allowed to react with 3.6 mg NHS-biotin in 150 ul DMSO for 2 hours at room temperature with gently shaking.
Assay procedure for protease activity using biotinylated casein: The microtitre plates except for the first column of 8 wells were coated using biotinylated α-casein in PBS (0.13 ug/well/100 ul) and incubated for 2 hours at 37° C. The plates were washed three times with 0.1 M PBST (PBS with 0.05% Tween-20). Different concentrations of the enzyme solution as indicated in FIGS. 12-14 (100 ul) were diluted with the appropriate buffer (see Table 2). They were added in triplicate to the wells of a plate followed by incubating in a humid atmosphere at 37° C. for 30 minutes. The plate was washed three times using PBST to terminate the protease reaction. A streptavidin-alkaline phosphatase solution (100 ul/well, 1:1000 dilution in bicarbonate buffer pH 9.5) was added to all wells in the plate except for the first column of 8 wells (as blank) and the plate was incubated at room temperature for 30 minutes. The blank set of wells contained only PBS, no added enzyme and no coating with biotinylated casein. The reaction was stopped by emptying and washing the plate six times with PBST. The pNPP substrate (100 ul/well, 1 mg/ml in 10% diethanolamine buffer pH9.8) was added to each well of the plate followed by incubation at room temperature for about 20 minutes. The absorbency was then read at 405 nm using a microplate reader (Bio-Rad laboratories, Ltd, Mississauga, ON, Canada; model 450). The best sensitivity was obtained when the maximum absorbency was around 2.0 optical density units.

[2] = Azo-barley glucan method for β-glucanase; format: biochemical
Source text: as §1

[3] = ELSA for xylanase using biotin-arabinoxylan complex; format: biochemical
Source text: as §1

Molecule	Relative activity compared to lichenase (mean ± SD, n = 12) [1]	Hydrolysis of biotin-casein by proteases (biotinylated α-casein)	Sensitivity (amount of enzyme required to hydrolyse 10% of the biotinylated α-casein) (biotinylated α-casein) [ng/100 ul/sample]	further results
CC(C)C[C@H](NC(=O)N[C@H](C(=O)N[C@@H](CCC(N)=O)C(=O)N[C@@H](C)C=O)[C@@H]1CCNC(=N)N1)C(=O)O [elastatinal]				Interference with the binding of labelled trypsin to trypsin inhibitor (trypsin (EC 3.4.21.4)): did not interfere
β-glucan				Amount of β-glucan in the well above which enzyme activity was reduced (β-glucanase (lichenase)): exceeded 1 μg/well
1,4-β-D-glucan-4-glucanohydrolase [Cellulase]	101 ± 7			
CC(=O)N[C@@H](CC(C)C)C(=O)N[C@@H](CC(C)C)C(=O)N[C@H](C=O)CCCNC(=N)N [leupeptin]				Concentration of inhibitor that could be detected (trypsin (EC 3.4.21.4); ovomucoid-coated plate 4 ug/100 ul/well, biotinylated trypsin about 2 ug/100 ul/well): 0.03 to 1 µg/mL
bovine serum albumin (BSA): other protein tested for interference				Interference with the binding of labelled trypsin to trypsin inhibitor (trypsin (EC 3.4.21.4)): did not interfere
elastase		Yes	4.4	
endo-1,4-β-D xylan xylanohydrolase [Endo-β-xylanase]	2.1 ± 0.1			
pepsin		Yes	641	
amylopectin 6-glycohydrolase [Pullulanase]	1.8 ± 0.1			
B1		Yes	700	Sensitivity: amount of enzyme required to produce a 10% decrease in maximal absorbency (biotinylated α-casein; 0.5 hour hydrolysis): 700 ng/100 ul
B2	100 ± 4			Detection range for the ELSA [1]: 0.001 to 1 mU/assay; Detection range of the azo-barley glucan procedure [2]: 10 to 100 mU/assay; Activity on biotin-arabinoxylan substrate [3]: No activity
B3		Yes	25	
B4	4.3 ± 0.2			
